# Assay results published in US20070202079A1, “Therapeutic compositions and methods useful in modulating protein tyrosine phosphatases” (priority 2006, published 2007).
# Positions count from the first letter of the chain named.
# B1: GST fusion protein of PRL-1R86 (recombinant PRL-1 protein containing R86) (protein)
# chain: MARMNRPAPVEVTYKNMRFLITHNPTNATLNKFIEELKKYGVTTIVRVCEATYDTTLVEKEGIHVLDWPFDDGAPPSNQIVDDWLRLVKIKFREEPGCCIAVHCVAGLGRAPVLVALALIEGGMKYEDAVQFIRQKRRGAFNSKQLLYLEKYRPKMRLRFKDSNGHRNNCCIQ
# B2: GST fusion protein of PRL-1 (recombinant wild type PRL-1) (protein)
# chain: B1 chain with R86S
# B3: Flag-PRL-1R86 (Flag-tagged PRL-1 R86 mutant) (protein)
# chain: B1 chain
# B4: Flag-PRL-1 (human PRL-1 tagged at the N-terminus with the Flag epitope) (protein)
# chain: B1 chain with R86S
# Columns and labels:
# SHP-1 = target: T1, SHP-1 (Mus musculus, UniProt P29351); assay: in vitro PTPase assay, GST/SHP-1; assay type: biochemical
# T1 construct: made in house
# T1 sequence (P29351 whole entry): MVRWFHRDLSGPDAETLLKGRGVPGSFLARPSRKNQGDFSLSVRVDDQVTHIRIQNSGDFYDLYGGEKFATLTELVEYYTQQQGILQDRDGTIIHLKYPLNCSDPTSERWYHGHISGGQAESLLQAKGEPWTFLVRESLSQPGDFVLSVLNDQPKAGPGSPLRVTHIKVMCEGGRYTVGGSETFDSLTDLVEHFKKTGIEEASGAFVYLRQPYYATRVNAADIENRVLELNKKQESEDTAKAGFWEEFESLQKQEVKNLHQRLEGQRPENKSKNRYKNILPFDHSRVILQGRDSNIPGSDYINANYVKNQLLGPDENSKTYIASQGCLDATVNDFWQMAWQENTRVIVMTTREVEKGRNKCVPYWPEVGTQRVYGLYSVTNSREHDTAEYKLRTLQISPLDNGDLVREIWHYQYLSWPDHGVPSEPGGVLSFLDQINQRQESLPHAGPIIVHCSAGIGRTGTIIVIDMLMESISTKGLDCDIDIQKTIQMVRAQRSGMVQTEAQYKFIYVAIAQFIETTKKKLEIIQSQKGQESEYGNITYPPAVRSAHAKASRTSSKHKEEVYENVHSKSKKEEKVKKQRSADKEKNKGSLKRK
# Description: In vitro PTPase activities were measured using the commercial protein tyrosine phosphatase assay kit (Upstate Biotechnology, Inc. (“UBI”)) following established procedure known to one of skill in the art. […] Briefly, 0.01 μg of GST/PTPase fusion proteins was incubated in 50 μl of Tris buffer (10 mM Tris, pH 7.4) containing different concentrations of inhibitors or chemicals (0-1,000 μg/ml) at 22° C. for 10 minutes, followed by addition of 0.2 mM of the phosphotyrosine peptide and incubation at 22° […] 100 μl of Malachite Green solution was added and incubated for 5 minutes, and the absorbance at 660 nm was measured after 5 minutes.
# To assess the reversibility of inhibition of SHP-1 by PTPase inhibitors, GST/SHP-1 fusion protein bound on glutathione beads were pre-incubated in cold Tris buffer or Tris buffer containing the PTPase inhibitors at 4° C. for 30 minutes. The beads were then either subjected to in vitro PTPase assays or washed 3 times in Tris buffer then subjected to in vitro PTPase assays.
# Briefly, individual PTPases (0.1 μg/reaction) in 50 μL of PTPase buffer (50 mM Tris, pH 7.4) were incubated at 22° C. for 10 minutes or as indicated in the absence or presence of inhibitory compounds. Substrates (0.2 mM phosphotyrosine peptide) were then added and allowed to react at 22° C. for 18 hrs. PTPase activity of individual reactions was measured by adding 100 μL of malachite green solution (UBI) and then quantifying the amounts of free phosphate cleaved by the PTPase from the peptide substrate by spectrometry (OD660 nm). […] Relative PTPase activities were calculated based on the formula: (PTPase activity in the presence of an inhibitory compound/PTPase activity in the absence of the compound)× 100%. To assess the reversibility of PTPase inhibition, GST fusion proteins of the PTPases bound on glutathione beads (Pharmacia) were pre-incubated with cold Tris buffer (50 mM Tris, pH 7.0) or Tris buffer containing the inhibitor at 4° C. for 30 minutes. The beads were then washed three times in cold Tris buffer or not washed prior to subjecting to in vitro PTPase assays.
# PRL-3 = target: T2, PRL-3 (Homo sapiens, UniProt O75365); assay: in vitro PTPase assay, recombinant PRL-3; assay type: biochemical; details: DiFMUP substrate
# T2 construct: cDNAs of human PRL-1, PRL-2 and PRL-3 coding region were derived by RT-PCR; made in house; host or cells: DH5a bacteria (E. coli)
# T2 sequence (O75365 whole entry): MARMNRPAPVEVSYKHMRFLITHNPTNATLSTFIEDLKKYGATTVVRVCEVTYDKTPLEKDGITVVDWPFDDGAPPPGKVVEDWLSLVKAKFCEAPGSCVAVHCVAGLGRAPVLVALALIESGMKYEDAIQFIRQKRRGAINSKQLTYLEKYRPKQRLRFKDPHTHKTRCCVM
# Excerpt: Sodium stibogluconate, suramin, sodium orthovanadate and GST fusion protein of SHP-1 have been described previously (Pathak et al., J. Immunol. 167, 3391 (2001)). Meglumine antimonate was obtained from Aventis. cDNAs of human PRL-1, PRL-2 and PRL-3 coding region were derived by RT-PCR from H9 cells (Safai, et al., Lancet 1, 1438 (1984)) and inserted in frame into the pGEX vector. cDNA of PRL-1R86 was generated by recombinant DNA technique using PRL-1 cDNA as template following established procedures (Jiao, et al., Mol. Cell. Biol. 16, 6985 (1996)). GST fusion proteins of the PRL phosphatases were prepared from DH5a bacteria transformed with the pGEX fusion protein constructs as described previously (Yi, et al., Mol. Cell. Biol. 12, 836 (1992)). cDNAs encoding the PRLs tagged at the N-termini with the Flag epitope (Castrucci, et al., J. Virol. 66, 4647 (1992)) were generated via recombinant DNA technique, sequenced to confirm their identities and cloned into the pBabepuro vector (Yang, et al., Blood 91, 3746 (1998)). Anti-Flag monoclonal antibody (M2, Sigma) was purchased from a commercial source. A synthetic phosphotyrosine peptide (Arg-Arg-Leu-Ile-Glu-Asp-Ala-Gle-Tyr-Al- -a-Ala-Arg-Gly (SEQ ID NO: 3), wherein the tyrosine is phosphorylated; UBI) and DiFMUP (6, 8-difluoro-4-methylumbelliferyl phosphate, Molecular Probes) were purchased as substrates for PTPase assays.
# In vitro PTPase assays were used to determine the effects of compounds on recombinant PTPases, following established procedures using a synthetic phosphotyrosine peptide or DiFMUP as the substrate (Pathak et al., J. Immunol. 167, 3391 (2001)). Briefly, individual PTPases (0.1 μg/reaction) in 50 μL of PTPase buffer (50 mM Tris, pH 7.4) were incubated at 22° C. for 10 minutes or as indicated in the absence or presence of inhibitory compounds. Substrates (0.2 mM phosphotyrosine peptide) were then added and allowed to react at 22° C. for 18 hrs. PTPase activity of individual reactions was measured by adding 100 μL of malachite green solution (UBI) and then quantifying the amounts of free phosphate cleaved by the PTPase from the peptide substrate by spectrometry (OD660 nm). PTPase assays using DiFMUP as a substrate were conducted following a previously described procedure (Matter, et al., Biochem. Biophys. Res. Comm. 283, 1061 (2001)). Relative PTPase activities were calculated based on the formula: (PTPase activity in the presence of an inhibitory compound/PTPase activity in the absence of the compound)× 100%. To assess the reversibility of PTPase inhibition, GST fusion proteins of the PTPases bound on glutathione beads (Pharmacia) were pre-incubated with cold Tris buffer (50 mM Tris, pH 7.0) or Tris buffer containing the inhibitor at 4° C. for 30 minutes. The beads were then washed three times in cold Tris buffer or not washed prior to subjecting to in vitro PTPase assays.
# MKP1 = target: T3, MKP1 (Homo sapiens, UniProt P28562); assay: in vitro PTPase assay, GST/MKP1; assay type: biochemical; details: levamisole, pentamidine, ketoconazole
# T3 construct: a pGEX construct containing the coding region of MKP1 cDNA derived by RT-PCR; made in house; host or cells: DH5a bacteria (E. coli)
# T3 sequence (P28562 1-367): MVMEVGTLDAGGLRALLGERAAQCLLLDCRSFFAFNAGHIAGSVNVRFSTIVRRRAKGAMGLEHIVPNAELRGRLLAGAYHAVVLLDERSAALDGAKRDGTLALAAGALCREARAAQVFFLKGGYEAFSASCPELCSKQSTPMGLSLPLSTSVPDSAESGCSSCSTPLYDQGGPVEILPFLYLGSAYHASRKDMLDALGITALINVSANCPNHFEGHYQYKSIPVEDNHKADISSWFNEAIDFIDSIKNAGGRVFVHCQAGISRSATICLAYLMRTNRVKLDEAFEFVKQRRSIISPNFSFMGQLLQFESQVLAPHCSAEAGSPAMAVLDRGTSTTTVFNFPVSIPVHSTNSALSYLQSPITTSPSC
# Description: In vitro PTPase activities were measured using the commercial protein tyrosine phosphatase assay kit (Upstate Biotechnology, Inc. (“UBI”)) following established procedure known to one of skill in the art. This assay measures the in vitro dephosphorylation of a synthetic phosphotyrosine peptide of the sequence Arg-Arg-Leu-Ile-Glu-Asp-Ala-Gle-T- -yr-Ala-Ala-Arg-Gly, wherein the tyrosine is phosphorylated (SEQ ID NO: 3). Briefly, 0.01 μg of GST/PTPase fusion proteins was incubated in 50 μl of Tris buffer (10 mM Tris, pH 7.4) containing different concentrations of inhibitors or chemicals (0-1,000 μg/ml) at 22° C. for 10 minutes, followed by addition of 0.2 mM of the phosphotyrosine peptide and incubation at 22° C. for 18 hours. 100 μl of Malachite Green solution was added and incubated for 5 minutes, and the absorbance at 660 nm was measured after 5 minutes.
# (§1) In vitro PTPase assays were used to determine the effects of levamisole (Sigma), pentamidine (American Pharmaceutical Partners, Inc.), and ketoconazole (Sigma) on recombinant PTPases, following established procedures (Pathak et al., J. Immunol. 167, 3391 (2001); Pathak et al., Leukemia 16, 2285 (2002), Yi et al., J. Immunol. 169, 5978 (2002)) using a synthetic phosphotyrosine peptide or DiFMUP as the substrate as detailed above in section I.A.2.
# GSTm8 = assay: in vitro PTPase assay, GSTm8; assay type: biochemical; details: 3-4 μg/ml or 10-100 μg/ml
# Excerpt: as §1
# [1] = tested on: T4, Synthetic phosphotyrosine peptide Arg-Arg-Leu-Ile-Glu-Asp-Ala-Gle-Tyr-Ala-Ala-Arg-Gly (SEQ ID NO: 3), tyrosine phosphorylated
# T4 sequence: RRLIEDAEYAARG
# [2] = target: T5, Synthetic phosphotyrosine peptide Arg-Arg-Leu-Ile-Glu-Asp-Ala-Gle-Tyr-Ala-Ala-Arg-Gly (SEQ ID NO: 3), tyrosine phosphorylated (not fully specified)
# T5 chain: RRLIEDAEYAARG
molecule,measurement,setting,value
Cc1ccc(C(=O)Nc2ccc(S(=O)(=O)O)c3cc(S(=O)(=O)O)cc(S(=O)(=O)O)c23)cc1NC(=O)c1cccc(NC(=O)Nc2cccc(C(=O)Nc3cc(C(=O)Nc4ccc(S(=O)(=O)O)c5cc(S(=O)(=O)O)cc(S(=O)(=O)O)c45)ccc3C)c2)c1 [Suramin],inhibition of SHP-1 compared with sodium stibogluconate,SHP-1; comparable conditions,less effective
same,inhibition of GST/SHP-1 after washing (reversibility),"SHP-1; pre-incubated 30 min at 4 °C, beads washed 3 times",almost completely removed by the washing process
same,inhibition of PRL-3 compared with sodium stibogluconate,PRL-3,less effective
c1ccc([C@H]2CN3CCSC3=N2)cc1 [levamisole],inhibitory activity against SHP-1,SHP-1; 3-4 μg/ml or 10-100 μg/ml,no obvious inhibitory activity
same,inhibition of MKP1,MKP1,substantial inhibition
same,inhibitory activity against GSTm8,GSTm8,no obvious inhibitory activity
[Na+].[Na+].[Na+].[O]=[V]([O-])([O-])[O-] [sodium orthovanadate],inhibition of PRL-3 compared with sodium stibogluconate,PRL-3,less effective
GST fusion protein of SHP-1,PTPase activities against the peptide substrate (660 nm absorbance above background),[1],660 nm absorbance approximately 0.6 above background (0.03)
GST fusion protein of SHP-2,PTPase activities against the peptide substrate (660 nm absorbance above background),[1],660 nm absorbance approximately 0.6 above background (0.03)
GST fusion protein of mitogen-activated protein kinase phosphatase 1 (MKP1),PTPase activities against the peptide substrate (660 nm absorbance above background),[1],660 nm absorbance approximately 0.6 above background (0.03)
GST fusion protein of protein tyrosine phosphatase 1B (PTP1B),PTPase activities against the peptide substrate (660 nm absorbance above background),[1],660 nm absorbance approximately 0.6 above background (0.03)
B1,in vitro PTPase activity,[2],showed in vitro PTPase activity similar to that of wild type PRL-1
B2,in vitro PTPase activity,[2],showed in vitro PTPase activity similar to that of wild type PRL-1
B3,phosphatase activities of anti-Flag immunocomplexes,[2],showed phosphatase activities well above the background activity of the vector control cells
B4,PTPase activity of anti-Flag immunocomplexes,[2],a markedly higher PTPase activity (about 23 folds) over that of control transfectants
same,phosphatase activities of anti-Flag immunocomplexes,[2],showed phosphatase activities well above the background activity of the vector control cells
